How the values were obtained:
[1] = target: EPHB1 (UniProt P54762); experiment: phosphorylation enrichment, bacterial display (enrichment ratio); higher = better substrate or ligand; peptides without Tyr show the background
[2] = target: Fes (UniProt P07332); experiment: as above
[3] = test system: AncSZ; experiment: as above
[4] = target: Fyn (UniProt P06241); experiment: as above
[5] = target: MERTK (UniProt Q12866); experiment: as above
[6] = test system: c-Src; experiment: as above
[7] = test system: Fer (mouse); experiment: as above
[8] = target: FGFR3 (UniProt P22607); experiment: as above
[9] = target: Jak2 (UniProt O60674); experiment: as above
[10] = target: FGFR1 (UniProt P11362); experiment: as above
[11] = test system: c-Abl (mouse); experiment: as above
[12] = target: EPHB2 (UniProt P29323); experiment: as above
[13] = target: Hck (UniProt P08631); experiment: as above
[14] = target: c-Src SH2; experiment: SH2 binding enrichment of the phosphorylated peptide, bacterial display (enrichment ratio); higher = better substrate or ligand; peptides without Tyr show the background
[15] = target: Grb2 SH2 (UniProt P62993); experiment: as above
[16] = target: SHP2-C SH2; experiment: as above
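Wherever SH2 binding enrichment of the phosphorylated peptide, bacterial display is given: peptide library displayed on the E. coli surface as eCPX fusions, selected cells deep-sequenced, score is each peptide's frequency after selection divided by its frequency in the input.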
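Wherever phosphorylation enrichment, bacterial display is given: 11-residue human phosphosite peptides and single-mutation variants displayed on the E. coli surface, counted by deep sequencing, each peptide's frequency after selection divided by its frequency in the unselected input library; frequency after pTyr selection over input frequency; kinase dosed for 20-30% of maximal phosphorylation in three min.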

Chain of Hck (P08631 whole entry, looked up): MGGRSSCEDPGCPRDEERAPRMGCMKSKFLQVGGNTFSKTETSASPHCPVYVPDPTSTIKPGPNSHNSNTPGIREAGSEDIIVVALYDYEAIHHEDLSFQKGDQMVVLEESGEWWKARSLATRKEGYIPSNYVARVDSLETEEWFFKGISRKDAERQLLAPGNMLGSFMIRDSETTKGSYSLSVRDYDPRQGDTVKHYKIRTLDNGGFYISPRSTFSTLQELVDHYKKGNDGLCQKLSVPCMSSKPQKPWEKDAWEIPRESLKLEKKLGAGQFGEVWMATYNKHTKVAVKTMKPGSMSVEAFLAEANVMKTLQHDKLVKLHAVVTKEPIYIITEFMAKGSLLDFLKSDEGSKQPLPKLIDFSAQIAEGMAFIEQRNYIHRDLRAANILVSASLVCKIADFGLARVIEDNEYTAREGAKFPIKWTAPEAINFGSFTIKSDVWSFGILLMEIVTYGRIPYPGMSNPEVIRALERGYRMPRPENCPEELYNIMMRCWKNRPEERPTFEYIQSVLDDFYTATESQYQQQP
Chain of MERTK (Q12866 whole entry, looked up): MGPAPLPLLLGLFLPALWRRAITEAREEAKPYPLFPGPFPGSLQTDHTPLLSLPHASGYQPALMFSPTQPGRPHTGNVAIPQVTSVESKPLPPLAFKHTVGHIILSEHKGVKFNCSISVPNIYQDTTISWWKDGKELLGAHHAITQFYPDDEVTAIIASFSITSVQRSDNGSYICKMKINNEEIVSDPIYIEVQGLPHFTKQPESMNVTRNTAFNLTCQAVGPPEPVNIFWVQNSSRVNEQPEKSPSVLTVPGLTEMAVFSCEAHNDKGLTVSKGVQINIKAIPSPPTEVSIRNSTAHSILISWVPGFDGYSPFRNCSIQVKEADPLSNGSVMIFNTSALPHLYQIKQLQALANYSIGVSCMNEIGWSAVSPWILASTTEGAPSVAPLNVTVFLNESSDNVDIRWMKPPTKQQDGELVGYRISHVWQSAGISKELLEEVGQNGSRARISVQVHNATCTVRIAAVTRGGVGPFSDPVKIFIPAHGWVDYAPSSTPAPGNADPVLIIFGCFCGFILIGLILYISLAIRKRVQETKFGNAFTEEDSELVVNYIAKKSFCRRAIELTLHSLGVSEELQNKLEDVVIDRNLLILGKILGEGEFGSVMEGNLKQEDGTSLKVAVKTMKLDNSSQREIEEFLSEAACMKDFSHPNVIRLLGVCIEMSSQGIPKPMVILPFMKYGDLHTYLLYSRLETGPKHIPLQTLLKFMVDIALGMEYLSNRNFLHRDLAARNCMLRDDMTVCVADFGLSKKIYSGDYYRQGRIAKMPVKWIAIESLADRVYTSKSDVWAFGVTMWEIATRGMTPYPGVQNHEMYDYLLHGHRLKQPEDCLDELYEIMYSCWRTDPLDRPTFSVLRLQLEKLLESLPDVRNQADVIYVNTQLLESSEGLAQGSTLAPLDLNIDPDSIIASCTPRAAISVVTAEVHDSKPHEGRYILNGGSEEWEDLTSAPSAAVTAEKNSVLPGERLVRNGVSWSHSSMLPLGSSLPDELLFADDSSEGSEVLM
Chain of Jak2 (O60674 whole entry, looked up): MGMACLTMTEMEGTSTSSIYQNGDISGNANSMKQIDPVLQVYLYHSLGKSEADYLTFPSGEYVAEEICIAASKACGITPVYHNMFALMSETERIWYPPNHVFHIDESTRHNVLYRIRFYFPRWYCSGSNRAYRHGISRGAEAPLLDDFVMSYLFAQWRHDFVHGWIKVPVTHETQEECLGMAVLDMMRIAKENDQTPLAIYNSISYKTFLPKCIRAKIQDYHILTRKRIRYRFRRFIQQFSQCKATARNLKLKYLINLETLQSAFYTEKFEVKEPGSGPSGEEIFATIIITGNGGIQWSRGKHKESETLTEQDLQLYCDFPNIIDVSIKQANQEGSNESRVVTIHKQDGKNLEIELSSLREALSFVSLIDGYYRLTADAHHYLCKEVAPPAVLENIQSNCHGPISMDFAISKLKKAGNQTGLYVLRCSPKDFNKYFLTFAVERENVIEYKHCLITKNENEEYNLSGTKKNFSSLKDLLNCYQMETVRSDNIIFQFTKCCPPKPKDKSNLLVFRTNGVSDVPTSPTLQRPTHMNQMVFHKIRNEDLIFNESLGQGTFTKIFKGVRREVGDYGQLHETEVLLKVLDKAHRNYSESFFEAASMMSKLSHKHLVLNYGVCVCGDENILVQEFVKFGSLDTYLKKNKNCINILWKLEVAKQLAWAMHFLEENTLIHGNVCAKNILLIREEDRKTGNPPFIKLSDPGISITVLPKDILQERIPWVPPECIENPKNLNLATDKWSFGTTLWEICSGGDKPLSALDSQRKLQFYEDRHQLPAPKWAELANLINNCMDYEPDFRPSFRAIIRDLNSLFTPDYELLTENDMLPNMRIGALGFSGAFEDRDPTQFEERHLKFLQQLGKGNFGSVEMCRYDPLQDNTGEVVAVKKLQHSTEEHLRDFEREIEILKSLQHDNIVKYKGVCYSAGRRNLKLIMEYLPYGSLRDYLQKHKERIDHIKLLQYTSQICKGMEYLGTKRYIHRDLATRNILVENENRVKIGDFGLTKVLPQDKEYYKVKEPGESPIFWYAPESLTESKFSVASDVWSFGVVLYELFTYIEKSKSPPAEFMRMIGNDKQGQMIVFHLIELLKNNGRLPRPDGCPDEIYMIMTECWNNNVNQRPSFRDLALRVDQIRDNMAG
Chain of Fyn (P06241 whole entry, looked up): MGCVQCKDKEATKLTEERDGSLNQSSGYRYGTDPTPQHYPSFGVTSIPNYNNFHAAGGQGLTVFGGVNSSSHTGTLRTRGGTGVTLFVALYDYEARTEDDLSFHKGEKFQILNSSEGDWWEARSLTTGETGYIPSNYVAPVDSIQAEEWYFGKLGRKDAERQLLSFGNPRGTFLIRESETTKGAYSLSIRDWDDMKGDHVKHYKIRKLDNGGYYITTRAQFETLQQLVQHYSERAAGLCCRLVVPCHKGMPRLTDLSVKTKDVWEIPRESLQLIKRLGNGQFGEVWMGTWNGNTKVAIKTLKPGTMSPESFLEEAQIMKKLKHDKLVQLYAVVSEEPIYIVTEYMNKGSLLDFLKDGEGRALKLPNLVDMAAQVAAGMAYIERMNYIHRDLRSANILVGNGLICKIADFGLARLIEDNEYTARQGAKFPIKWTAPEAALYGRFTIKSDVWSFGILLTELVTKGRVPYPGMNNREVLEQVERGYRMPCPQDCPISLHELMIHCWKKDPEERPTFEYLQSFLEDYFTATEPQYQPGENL
Chain of FGFR3 (P22607 whole entry, looked up): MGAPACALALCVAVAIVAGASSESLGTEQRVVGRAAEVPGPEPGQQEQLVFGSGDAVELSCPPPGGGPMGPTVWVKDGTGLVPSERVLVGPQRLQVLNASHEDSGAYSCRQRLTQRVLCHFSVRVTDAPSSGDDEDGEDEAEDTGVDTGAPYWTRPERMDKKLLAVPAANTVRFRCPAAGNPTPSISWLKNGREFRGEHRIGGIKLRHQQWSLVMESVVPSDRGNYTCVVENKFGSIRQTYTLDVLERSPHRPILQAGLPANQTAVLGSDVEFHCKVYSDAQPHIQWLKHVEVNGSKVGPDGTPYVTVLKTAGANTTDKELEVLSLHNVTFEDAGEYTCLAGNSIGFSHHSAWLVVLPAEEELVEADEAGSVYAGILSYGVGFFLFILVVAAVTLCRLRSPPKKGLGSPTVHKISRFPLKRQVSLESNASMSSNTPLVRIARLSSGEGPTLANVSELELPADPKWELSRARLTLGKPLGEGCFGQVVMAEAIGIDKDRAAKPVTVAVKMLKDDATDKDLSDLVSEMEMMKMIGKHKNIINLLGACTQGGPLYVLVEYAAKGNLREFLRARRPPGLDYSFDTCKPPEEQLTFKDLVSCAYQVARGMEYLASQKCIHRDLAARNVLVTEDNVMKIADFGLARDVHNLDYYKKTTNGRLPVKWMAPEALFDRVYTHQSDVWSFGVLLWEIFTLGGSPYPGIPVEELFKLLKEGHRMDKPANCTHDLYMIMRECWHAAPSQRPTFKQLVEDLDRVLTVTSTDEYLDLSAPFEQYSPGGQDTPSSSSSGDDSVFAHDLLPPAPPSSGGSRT
Chain of Grb2 SH2 (P62993 whole entry, looked up): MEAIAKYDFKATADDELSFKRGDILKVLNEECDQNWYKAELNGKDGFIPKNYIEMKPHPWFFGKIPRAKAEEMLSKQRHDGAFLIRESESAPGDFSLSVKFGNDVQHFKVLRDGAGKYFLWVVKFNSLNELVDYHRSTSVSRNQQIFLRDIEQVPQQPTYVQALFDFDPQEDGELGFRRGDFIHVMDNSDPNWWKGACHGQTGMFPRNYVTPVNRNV
Chain of FGFR1 (P11362 whole entry, looked up): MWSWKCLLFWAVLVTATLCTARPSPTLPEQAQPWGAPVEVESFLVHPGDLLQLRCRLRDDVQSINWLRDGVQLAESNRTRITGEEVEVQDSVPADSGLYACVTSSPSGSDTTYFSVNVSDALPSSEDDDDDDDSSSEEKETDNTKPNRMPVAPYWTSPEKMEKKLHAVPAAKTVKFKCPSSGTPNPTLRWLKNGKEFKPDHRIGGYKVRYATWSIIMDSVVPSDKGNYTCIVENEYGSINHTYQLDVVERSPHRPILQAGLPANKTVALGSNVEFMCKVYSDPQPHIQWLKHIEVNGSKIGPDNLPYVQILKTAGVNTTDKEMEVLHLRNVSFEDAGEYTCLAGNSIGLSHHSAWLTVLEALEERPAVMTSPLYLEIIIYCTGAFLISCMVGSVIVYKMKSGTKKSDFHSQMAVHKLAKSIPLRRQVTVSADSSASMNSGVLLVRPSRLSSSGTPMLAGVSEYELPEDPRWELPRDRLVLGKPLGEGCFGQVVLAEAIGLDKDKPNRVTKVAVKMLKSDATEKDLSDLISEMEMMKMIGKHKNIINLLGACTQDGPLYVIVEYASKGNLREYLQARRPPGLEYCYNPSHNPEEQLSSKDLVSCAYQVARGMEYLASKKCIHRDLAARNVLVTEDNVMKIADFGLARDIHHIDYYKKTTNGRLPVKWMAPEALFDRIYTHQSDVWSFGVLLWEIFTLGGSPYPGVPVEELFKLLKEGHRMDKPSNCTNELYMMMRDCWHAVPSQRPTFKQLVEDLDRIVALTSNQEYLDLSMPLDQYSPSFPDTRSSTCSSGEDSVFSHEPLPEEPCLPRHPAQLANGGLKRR

Sequence | phosphorylation enrichment [1] | phosphorylation enrichment [2] | phosphorylation enrichment [3] | phosphorylation enrichment [4] | phosphorylation enrichment [5] | phosphorylation enrichment [6] | phosphorylation enrichment [7] | phosphorylation enrichment [8] | phosphorylation enrichment [9] | phosphorylation enrichment [10] | phosphorylation enrichment [11] | phosphorylation enrichment [12] | phosphorylation enrichment [13] | SH2 binding enrichment [14] | SH2 binding enrichment [15] | SH2 binding enrichment [16]
RCYVYYYSYLL [PTEN_Y177_R173C] | 0.82 | 2 | 1.42 | 0.787 | 1.01 | 1.36 | 0.86 | 1.64 | 2.13 | 1.35 | 1.71 | 0.936 | 1.08 | 0.407 | 0.668 | 0.51
NRDNTYNRVSE [FGA_Y127] | 0.472 | 0.728 | 0.603 | 0.425 | 0.329 | 0.405 | 0.395 | 0.469 | 0.678 | 0.38 | 0.762 | 0.407 | 0.457 | 1.59 | 0.758 | 0.775
HSVLQYVGGVM [FGGY_Y136] | 0.943 | 1.48 | 1.05 | 0.776 | 0.986 | 0.738 | 0.73 | 1.18 | 1.11 | 0.944 | 0.846 | 0.977 | 0.833 | 0.493 | 0.961 | 0.511
HDHFGYRQSVT [CD55_Y245_R240H_YF] | 0.65 | 0.896 | 0.733 | 0.444 | 0.346 | 0.725 | 0.482 | 0.528 | 0.536 | 0.479 | 0.659 | 0.434 | 0.51 | 0.628 | 0.803 | 0.871
TSNQEYLDVSM [FGFR1_Y766_L769V] | 0.866 | 1.06 | 1.15 | 0.504 | 0.441 | 0.415 | 0.561 | 1.05 | 0.958 | 1.24 | 0.684 | 0.681 | 0.56 | 0.567 | 0.811 | 0.696
CFSSEYHFVGG [CTSC_Y345_Y340C_YF] | 1.87 | 1.11 | 2.64 | 0.992 | 2.02 | 1.85 | 0.753 | 7.23 | 1.61 | 10.4 | 1.19 | 1.96 | 1.35 | 0.652 | 0.944 | 0.694
HGEAFYSEVKA [PAK5_Y182_P187A_YF] | 1.26 | 1.01 | 0.971 | 3.92 | 8.27 | 4.05 | 11 | 2.63 | 0.834 | 4.75 | 0.619 | 1.47 | 5.57 | 2.48 | 1.21 | 0.931
KGFCGYSFDDI [TMEM230_Y110_R108C_YF] | 0.613 | 1.35 | 1.18 | 0.526 | 0.471 | 1.16 | 0.504 | 0.863 | 1.28 | 0.595 | 1.07 | 0.568 | 0.456 | 0.983 | 0.71 | 0.516
HRGCLYLAIEF [TEK_Y899_Y897C_YF] | 0.758 | 1.37 | 1.29 | 0.26 | 0.467 | 0.49 | 0.511 | 1.17 | 1.33 | 0.667 | 1.31 | 1.81 | 0.367 | 0.206 | 0.686 | 0.316
KAFDMYSGDVM [FAM3D_Y122] | 1.18 | 0.732 | 0.832 | 0.846 | 0.876 | 0.935 | 0.423 | 0.569 | 0.653 | 0.593 | 0.508 | 1.15 | 1.23 | 0.462 | 0.829 | 0.559
QRIHDYYEHRY [HCN4_Y554] | 1.17 | 0.974 | 1.25 | 0.657 | 0.433 | 0.478 | 0.903 | 9.67 | 0.794 | 15.7 | 0.445 | 1.23 | 0.825 | 1.36 | 1.01 | 1
LFDPDFMKVIL [CYP4A22_Y104_Y104F_YF] | 1.63 | 2.6 | 2.44 | 0.899 | 1.06 | 1.23 | 0.999 | 1.86 | 2.74 | 1.15 | 2.1 | 0.908 | 1.12 | 0.463 | 1.06 | 0.543
LVMFFYAIFGM [SCN1A_Y1684_I1683F] | 0.608 | 1.23 | 1.35 | 0.789 | 0.84 | 0.524 | 0.708 | 1.34 | 1.06 | 0.898 | 0.937 | 0.566 | 0.446 | 1.44 | 1.58 | 2.64
LENSTYQYICV [CRB1_Y760_R764C] | 11.9 | 2.41 | 3.88 | 4.96 | 6.83 | 3.5 | 15.4 | 8.35 | 2.13 | 14.1 | 1.61 | 8.2 | 5.89 | 0.522 | 0.715 | 0.526
TENAGYFFRIS | 0.733 | 1.42 | 1.52 | 0.511 | 0.388 | 0.514 | 0.487 | 0.868 | 1.46 | 0.511 | 0.925 | 0.703 | 0.548 | 0.432 | 0.753 | 0.593
TAALWYIFSHT [ENG_Y612_YF] | 0.733 | 1.5 | 1.26 | 0.514 | 0.491 | 0.722 | 0.496 | 1.03 | 1.36 | 0.543 | 1.19 | 0.593 | 0.536 | 0.713 | 1.02 | 0.785
